Experimental data from article PMC11194072, “Cdc13 exhibits dynamic DNA strand exchange in the presence of telomeric DNA”.

Columns and labels:
[1] = biological target: T1, RPA heterotrimer (Rfa1-3) (Saccharomyces cerevisiae, UniProt P22336;P26754;P26755 1-621;1-273;1-122); assay: competition; EC50; prebound labelled Tel30G; 25 mM HEPES pH 8.0, 5% glycerol, 50 mM NaOAc, 150 mM NaCl, 7.5 mM MgCl2, 0.01% Tween 20; EMSA/DDE at 30°C; BLI without glycerol at ~23°C; settings: protein: recombinant; tags: untagged; copies: 1;1;1; single strand
T1 sequence (P22336 whole entry, chain 1 of 3): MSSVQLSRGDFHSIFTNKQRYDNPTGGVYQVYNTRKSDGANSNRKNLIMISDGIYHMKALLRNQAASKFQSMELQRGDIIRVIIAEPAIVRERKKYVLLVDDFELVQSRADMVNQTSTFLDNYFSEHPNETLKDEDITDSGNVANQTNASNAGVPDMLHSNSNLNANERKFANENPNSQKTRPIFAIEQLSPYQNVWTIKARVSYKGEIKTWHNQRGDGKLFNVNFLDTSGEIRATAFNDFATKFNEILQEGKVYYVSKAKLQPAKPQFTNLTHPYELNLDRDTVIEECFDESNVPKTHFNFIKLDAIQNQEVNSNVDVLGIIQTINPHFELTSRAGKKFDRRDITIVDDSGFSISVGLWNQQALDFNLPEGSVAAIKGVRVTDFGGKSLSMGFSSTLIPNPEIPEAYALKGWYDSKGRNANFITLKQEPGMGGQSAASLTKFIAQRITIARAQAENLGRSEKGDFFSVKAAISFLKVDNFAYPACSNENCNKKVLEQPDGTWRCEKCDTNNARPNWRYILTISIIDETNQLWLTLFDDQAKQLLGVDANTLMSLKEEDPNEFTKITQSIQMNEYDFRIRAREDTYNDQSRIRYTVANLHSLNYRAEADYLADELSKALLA
T1 sequence (P26754 whole entry, chain 2 of 3): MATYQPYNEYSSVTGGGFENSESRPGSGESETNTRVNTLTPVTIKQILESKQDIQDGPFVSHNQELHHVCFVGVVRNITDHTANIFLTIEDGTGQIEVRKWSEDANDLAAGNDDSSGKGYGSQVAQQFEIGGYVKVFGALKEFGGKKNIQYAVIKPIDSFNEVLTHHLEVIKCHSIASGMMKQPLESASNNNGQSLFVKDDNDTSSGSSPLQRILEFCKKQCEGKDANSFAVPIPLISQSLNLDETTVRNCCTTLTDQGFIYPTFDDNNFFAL
T1 sequence (P26755 whole entry, chain 3 of 3): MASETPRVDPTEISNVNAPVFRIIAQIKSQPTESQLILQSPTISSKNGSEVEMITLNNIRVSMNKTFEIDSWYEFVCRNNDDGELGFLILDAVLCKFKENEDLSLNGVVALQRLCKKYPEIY

[2] = biological target: T2, Cdc13 full-length (Sf9) (Saccharomyces cerevisiae, UniProt P32797 1-924); assay: competition; EC50; prebound IR700-Tel30G 2 nM; 25 mM HEPES pH 8.0, 5% glycerol, 50 mM NaOAc, 150 mM NaCl, 7.5 mM MgCl2, 0.01% Tween 20; EMSA/DDE at 30°C; BLI without glycerol at ~23°C; settings: protein: recombinant; tags: N-terminal SUMO-His6 tag, C-terminal FLAG tag; chain copies: 2; single strand
T2 sequence: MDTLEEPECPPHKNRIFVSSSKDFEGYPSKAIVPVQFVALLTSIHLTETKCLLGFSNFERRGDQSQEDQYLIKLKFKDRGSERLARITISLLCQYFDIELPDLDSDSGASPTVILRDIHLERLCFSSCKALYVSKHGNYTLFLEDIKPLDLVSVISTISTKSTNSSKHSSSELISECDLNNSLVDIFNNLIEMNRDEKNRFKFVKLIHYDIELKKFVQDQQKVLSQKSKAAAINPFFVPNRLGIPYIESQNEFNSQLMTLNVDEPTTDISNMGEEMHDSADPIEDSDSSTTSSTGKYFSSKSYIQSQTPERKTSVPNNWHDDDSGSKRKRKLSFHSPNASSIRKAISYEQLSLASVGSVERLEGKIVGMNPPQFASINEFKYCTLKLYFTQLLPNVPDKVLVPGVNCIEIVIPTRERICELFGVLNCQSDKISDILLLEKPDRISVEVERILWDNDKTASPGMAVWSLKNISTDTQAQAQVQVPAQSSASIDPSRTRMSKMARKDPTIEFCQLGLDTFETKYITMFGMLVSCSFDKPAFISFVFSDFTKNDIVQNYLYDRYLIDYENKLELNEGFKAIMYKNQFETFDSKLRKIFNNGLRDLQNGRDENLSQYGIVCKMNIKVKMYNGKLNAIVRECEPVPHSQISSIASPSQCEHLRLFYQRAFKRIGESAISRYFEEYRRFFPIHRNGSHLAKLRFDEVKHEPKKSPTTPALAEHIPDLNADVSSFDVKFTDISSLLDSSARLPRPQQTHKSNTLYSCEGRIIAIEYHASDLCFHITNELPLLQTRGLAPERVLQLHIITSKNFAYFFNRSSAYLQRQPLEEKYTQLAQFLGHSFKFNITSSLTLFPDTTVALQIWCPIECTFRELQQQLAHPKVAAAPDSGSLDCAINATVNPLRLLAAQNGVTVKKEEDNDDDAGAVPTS

[3] = biological target: T1, RPA heterotrimer (Rfa1-3); assay: competition; EC50; prebound labelled Poly(dT)30; 25 mM HEPES pH 8.0, 5% glycerol, 50 mM NaOAc, 150 mM NaCl, 7.5 mM MgCl2, 0.01% Tween 20; EMSA/DDE at 30°C; BLI without glycerol at ~23°C; settings: protein: recombinant; tags: untagged; copies: 1;1;1; single strand
[4] = biological target: T1, RPA heterotrimer (Rfa1-3); assay: EMSA; 2 nM fork; 25 mM HEPES pH 8.0, 5% glycerol, 50 mM NaOAc, 150 mM NaCl, 7.5 mM MgCl2, 0.01% Tween 20; EMSA/DDE at 30°C; BLI without glycerol at ~23°C; settings: protein: recombinant; tags: untagged; copies: 1;1;1; fork 1:2, 20 bp duplex, two 25-nt ssDNA arms
[5] = biological target: T2, Cdc13 full-length (Sf9); assay: as above; settings: protein: recombinant; tags: N-terminal SUMO-His6 tag, C-terminal FLAG tag; chain copies: 2; fork 1:2, 20 bp duplex, two 25-nt ssDNA arms
[6] = biological target: T1, RPA heterotrimer (Rfa1-3); assay: EMSA; 2 nM probe; 25 mM HEPES pH 8.0, 5% glycerol, 50 mM NaOAc, 150 mM NaCl, 7.5 mM MgCl2, 0.01% Tween 20; EMSA/DDE at 30°C; BLI without glycerol at ~23°C; settings: protein: recombinant, tags: untagged, copies: 1;1;1, single strand
[7] = biological target: T2, Cdc13 full-length (Sf9); assay: as above; settings: protein: recombinant; tags: N-terminal SUMO-His6 tag, C-terminal FLAG tag; chain copies: 2; label: none, or 5' IRDye700/800; single strand
[8] = biological target: T1, RPA heterotrimer (Rfa1-3); assay: competition; EC50; prebound labelled Poly(dT)30; text also gives 15 nM; 25 mM HEPES pH 8.0, 5% glycerol, 50 mM NaOAc, 150 mM NaCl, 7.5 mM MgCl2, 0.01% Tween 20; EMSA/DDE at 30°C; BLI without glycerol at ~23°C; settings: protein: recombinant; tags: untagged; copies: 1;1;1; label: none, or 5' IRDye700/800; single strand
[9] = biological target: T3, Cdc13 OB3 (DBD) (Saccharomyces cerevisiae, UniProt P32797 497-694); assay: EMSA; 7.5 nM OB3, 2 nM IR700-Tel11G; complex stable to 0.4-50 nM unlabelled Tel11G; 25 mM HEPES pH 8.0, 5% glycerol, 50 mM NaOAc, 150 mM NaCl, 7.5 mM MgCl2, 0.01% Tween 20; EMSA/DDE at 30°C; BLI without glycerol at ~23°C; settings: protein: recombinant; tags: N-terminal His6; label: none, or 5' IRDye700; single strand
T3 sequence: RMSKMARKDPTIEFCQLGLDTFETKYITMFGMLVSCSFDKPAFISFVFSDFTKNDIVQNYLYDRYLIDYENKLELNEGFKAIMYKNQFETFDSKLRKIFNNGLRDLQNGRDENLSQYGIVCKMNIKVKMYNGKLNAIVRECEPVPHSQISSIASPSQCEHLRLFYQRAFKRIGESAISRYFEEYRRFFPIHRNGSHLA

[10] = biological target: T4, Cdc13 full-length (E. coli) (Saccharomyces cerevisiae, UniProt P32797 1-924); assay: competition; prebound IR700-Tel11G, unlabelled Tel11G competes; EC50 only in figure; 25 mM HEPES pH 8.0, 5% glycerol, 50 mM NaOAc, 150 mM NaCl, 7.5 mM MgCl2, 0.01% Tween 20; EMSA/DDE at 30°C; BLI without glycerol at ~23°C; settings: protein: recombinant; tags: N-terminal His6-SUMO, C-terminal 3xFLAG; chain copies: 2; label: none, or 5' IRDye700; single strand
T4 sequence: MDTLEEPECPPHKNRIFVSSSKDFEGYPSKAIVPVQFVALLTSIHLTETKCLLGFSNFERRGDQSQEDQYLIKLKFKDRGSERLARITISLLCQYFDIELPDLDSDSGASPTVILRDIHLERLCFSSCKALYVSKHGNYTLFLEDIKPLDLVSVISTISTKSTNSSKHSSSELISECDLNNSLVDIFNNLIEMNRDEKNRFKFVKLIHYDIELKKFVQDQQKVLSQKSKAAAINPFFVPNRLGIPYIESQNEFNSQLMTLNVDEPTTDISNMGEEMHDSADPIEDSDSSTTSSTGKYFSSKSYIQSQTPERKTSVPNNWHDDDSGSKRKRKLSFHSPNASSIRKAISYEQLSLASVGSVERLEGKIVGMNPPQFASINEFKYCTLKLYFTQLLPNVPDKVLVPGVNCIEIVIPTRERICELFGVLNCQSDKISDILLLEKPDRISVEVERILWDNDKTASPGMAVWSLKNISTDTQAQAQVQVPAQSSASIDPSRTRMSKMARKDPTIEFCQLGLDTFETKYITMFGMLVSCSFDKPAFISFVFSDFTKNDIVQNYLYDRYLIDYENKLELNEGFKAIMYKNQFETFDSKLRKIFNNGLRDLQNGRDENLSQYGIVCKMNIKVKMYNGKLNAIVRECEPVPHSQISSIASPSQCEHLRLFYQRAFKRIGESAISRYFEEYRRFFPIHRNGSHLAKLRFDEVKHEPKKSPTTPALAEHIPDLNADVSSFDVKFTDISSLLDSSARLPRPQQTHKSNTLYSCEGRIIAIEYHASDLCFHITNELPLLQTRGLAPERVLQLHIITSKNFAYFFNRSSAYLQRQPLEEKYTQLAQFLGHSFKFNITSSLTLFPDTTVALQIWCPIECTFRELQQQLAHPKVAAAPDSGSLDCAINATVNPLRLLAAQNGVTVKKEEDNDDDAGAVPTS

[11] = biological target: T2, Cdc13 full-length (Sf9); assay: as above; settings: protein: recombinant; tags: N-terminal SUMO-His6 tag, C-terminal FLAG tag; chain copies: 2; label: none, or 5' IRDye700; single strand
[12] = biological target: T5, Cdc13 OB1 (Saccharomyces cerevisiae, UniProt P32797 1-230); assay: EMSA; 7.8-1000 nM OB1; 25 mM HEPES pH 8.0, 5% glycerol, 50 mM NaOAc, 150 mM NaCl, 7.5 mM MgCl2, 0.01% Tween 20; EMSA/DDE at 30°C; BLI without glycerol at ~23°C; settings: protein: recombinant; tags: N-terminal His6-SUMO, C-terminal 3xFLAG; chain copies: 2; label: 5' IRDye700 or IRDye800; single strand
T5 sequence: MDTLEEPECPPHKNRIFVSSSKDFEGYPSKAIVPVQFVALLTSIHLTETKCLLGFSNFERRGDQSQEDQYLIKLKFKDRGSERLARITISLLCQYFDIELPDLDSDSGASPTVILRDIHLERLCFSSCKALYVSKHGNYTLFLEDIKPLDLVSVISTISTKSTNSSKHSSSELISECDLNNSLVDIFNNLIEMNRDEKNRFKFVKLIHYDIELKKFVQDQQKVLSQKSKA

[13] = biological target: T2, Cdc13 full-length (Sf9); assay: EMSA; 2 nM probe; near probe concentration, not a reliable Kd; 25 mM HEPES pH 8.0, 5% glycerol, 50 mM NaOAc, 150 mM NaCl, 7.5 mM MgCl2, 0.01% Tween 20; EMSA/DDE at 30°C; BLI without glycerol at ~23°C; settings: protein: recombinant; tags: N-terminal SUMO-His6 tag, C-terminal FLAG tag; chain copies: 2; label: 5' IRDye700 or IRDye800; single strand
[14] = biological target: T2, Cdc13 full-length (Sf9); assay: EMSA; IR700-Tel50G prebound; 25 mM HEPES pH 8.0, 5% glycerol, 50 mM NaOAc, 150 mM NaCl, 7.5 mM MgCl2, 0.01% Tween 20; EMSA/DDE at 30°C; BLI without glycerol at ~23°C; settings: protein: recombinant; tags: N-terminal SUMO-His6 tag, C-terminal FLAG tag; chain copies: 2; label: 5' IRDye700; single strand

GTGTGGGTGTGGTGTGGGTGTGGTGTGGGT (ssDNA) [Tel30G unlabelled (MB915)]
IC50 [1]: 5.44 nM
IC50 [2]: 0.89 nM
IC50 [3]: 5.1 nM

GTGTGGGTGTGGTGTGGGTGTGGTGTGGGTGTGTGGGTGTGGTGTGGGTG (ssDNA) [Tel50G unlabelled (MB1117)]
IC50 [2]: 0.96 nM

B1: Tel25G fork (MB1169/MB1170) (mixed)
DNA 1: GGTGTGGTGTGGGTGTGGTGTGGGTGTGTCACTCACATAGCGTTC
DNA 2: GAACGCTATGTGAGTGACACTGGGTGTGGTGTGGGTGTGGTGTGG
apparent K (half saturation) [4]: 2.5 ± 0.6 nM
apparent K (half saturation) [5]: 3.3 ± 0.5 nM

TTTTTTTTTTTTTTTTTTTTTTTTTTTTTT (ssDNA) [Poly(dT)30 (MB464 / MB1755 IR700 / MB1982 IR800)]
apparent K (half saturation) ([6]; label: none, or 5' IRDye700/800): 7 ± 0.5 nM
apparent K (half saturation) [7]: 26 ± 3 nM
IC50 [8]: 15.1 nM

GTGTGGGTGTG (ssDNA) [Tel11G (MB1983 / MB2018 IR700)]
binding result [9]: binds
binding result [10]: binds
binding result [11]: binds

CGCCATGCTGATCCGTGTGGTGTGTGTGGG (ssDNA) [Tel30G labelled (MB1930 IR700 / MB1981 IR800)]
apparent K (half saturation) ([6]; label: 5' IRDye700 or IRDye800): 2.4 ± 0.5 nM
apparent K (half saturation) [12]: 830 nM
apparent K (half saturation) [13]: 3.7 ± 0.3 nM

GTGTGGGTGTGGTGTGGGTGTGGTGTGGGTGTGTGGTGTGGTGTGTGTG (ssDNA) [IR700-Tel50G (MB1931)]
binding result [14]: binds
